# Reference: article PMC4515812
# Biological target: Sp1 (recombinant, Sigma-Aldrich SRP2030) (UniProt P08047 1-785)
# Assay: EMSA
# Chain of Sp1 (recombinant, Sigma-Aldrich SRP2030) (P08047 whole entry): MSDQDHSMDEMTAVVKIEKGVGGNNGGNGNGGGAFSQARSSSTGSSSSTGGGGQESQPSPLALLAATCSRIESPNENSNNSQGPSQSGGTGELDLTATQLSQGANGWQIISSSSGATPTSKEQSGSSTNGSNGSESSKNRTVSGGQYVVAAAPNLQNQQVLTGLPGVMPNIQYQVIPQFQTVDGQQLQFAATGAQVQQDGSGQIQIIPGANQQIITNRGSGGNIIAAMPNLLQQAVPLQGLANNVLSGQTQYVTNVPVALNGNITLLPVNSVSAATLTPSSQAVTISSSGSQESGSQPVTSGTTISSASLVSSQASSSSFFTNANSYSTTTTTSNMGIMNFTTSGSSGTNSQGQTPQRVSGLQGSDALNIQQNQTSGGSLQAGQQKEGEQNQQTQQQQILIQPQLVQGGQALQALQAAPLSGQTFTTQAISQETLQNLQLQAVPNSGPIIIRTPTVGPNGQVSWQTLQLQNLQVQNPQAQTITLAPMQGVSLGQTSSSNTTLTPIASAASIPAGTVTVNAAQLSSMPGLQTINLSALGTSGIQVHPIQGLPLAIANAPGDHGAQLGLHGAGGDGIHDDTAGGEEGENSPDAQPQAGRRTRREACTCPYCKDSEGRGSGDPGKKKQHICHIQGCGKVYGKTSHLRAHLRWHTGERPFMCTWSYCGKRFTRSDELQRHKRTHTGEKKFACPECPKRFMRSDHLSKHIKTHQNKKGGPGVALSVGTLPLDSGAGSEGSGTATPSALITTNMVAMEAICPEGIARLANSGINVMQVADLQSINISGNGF
row,Binder,binding result
1,Sp1 site -403/-382 probe (Sp1_EMSA2) (dsDNA) DNA 1: CGGGGCCCCGCCCGGGCCAGCC DNA 2: GGCTGGCCCGGGCGGGGCCCCG,binds
2,Sp1 site -336/-315 probe (Sp1_EMSA3) (dsDNA) DNA 1: GGGGGCCTCGCCCCTTTGGGGC DNA 2: GCCCCAAAGGGGCGAGGCCCCC,binds
3,Sp1 consensus probe (Sp1_EMSA1) (dsDNA) DNA 1: ATTCGATCGGGGCGGGGCGAGC DNA 2: GCTCGCCCCGCCCCGATCGAAT,binds
